From patent US20140193417A1 (LUDWIG INSTITUTE FOR CANCER RESEARCH, published 2014) come the findings set out here.

Experiment [1] concerns the target T1, T330M variant 312-340 peptide (SLC34A p312-340 T330M) (human).
T1 construct: also called T330M P312-340 peptide
T1 peptide: SPSLCWMDGIQNWTM
The experiment in a line: dot blot. The text has this:
Corut et al have studied and identified mutations in SLC34A2 that are predicted to cause pulmonary alveolar microlithiasis and are possibly also associated with testicular microlithiasis (Corut, A. et al (2006) AM J. Hum Genet. 79:650-656). While analyzing normal controls, Corut identified a novel variant c.989C-T (p. T330M), whereby threonine is replaced with methionine, substituting a polar residue with a non-polar residue. This is presumed to inactivate the SLC34A2 protein. This T330M mutation is located within the MX35 epitope peptide region of SLC34A2. […] While MX35, L2 and L3 antibodies bind p312-340 peptide SEQ ID NO: 8, none of these antibodies bind T330M P312-340 peptide by dot blot analysis.

The target of experiment [2] is T2, sodium-dependent phosphate transport protein 2b (NaPi2b, SLC34A2), human, endogenous (human, UniProt O95436 1-690).
T2 construct: whole, on cells; Naturally expressed, N-glycosylated membrane protein of human cancer cell lines (OVCAR-3, SK-RC-18 and others) and tissues; used on intact cells (MHA, flow cytometry), in cell or tissue lysates (Western blot, immunoprecipitation) and in tissue sections; also called MX35 antigen; NaPi2b/MX35
T2 sequence (looked up): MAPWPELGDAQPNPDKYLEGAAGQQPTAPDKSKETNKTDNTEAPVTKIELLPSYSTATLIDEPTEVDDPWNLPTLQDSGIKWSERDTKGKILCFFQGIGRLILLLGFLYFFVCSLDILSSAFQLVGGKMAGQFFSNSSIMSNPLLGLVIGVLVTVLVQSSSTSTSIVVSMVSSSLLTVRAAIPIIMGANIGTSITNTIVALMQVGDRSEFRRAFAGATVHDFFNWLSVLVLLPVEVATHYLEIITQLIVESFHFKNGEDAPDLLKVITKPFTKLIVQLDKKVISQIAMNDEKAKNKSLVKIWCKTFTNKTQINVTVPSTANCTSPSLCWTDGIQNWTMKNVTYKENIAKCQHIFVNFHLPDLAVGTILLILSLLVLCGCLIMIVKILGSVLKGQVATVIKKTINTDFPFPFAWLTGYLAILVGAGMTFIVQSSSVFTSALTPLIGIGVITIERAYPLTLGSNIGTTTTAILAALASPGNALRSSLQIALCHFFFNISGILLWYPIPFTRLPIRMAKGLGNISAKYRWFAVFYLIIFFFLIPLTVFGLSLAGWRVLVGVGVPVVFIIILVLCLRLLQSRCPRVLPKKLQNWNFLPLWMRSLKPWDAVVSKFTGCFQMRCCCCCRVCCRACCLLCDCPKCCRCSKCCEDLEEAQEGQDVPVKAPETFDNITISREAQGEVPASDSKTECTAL
The experiment can be described thus: mixed hemadsorption assay (MHA) on SK-RC-33 renal cancer cells. The text has this: A panel of cancer cell lines was co-typed for SLC34A2 mRNA expression by RT-PCR and for cell surface expression of MX35 protein antigen in a mixed hemadsorption assay (MHA) using mAb MX35 as probe. In addition, cell lysates were probed by Western blot analysis for MX35 expression. A panel of cancer cell lines with known expression of MX35 antigen was included. Strong expression of SLC34A2 mRNA correlated with MX35 antigen cell surface expression in all cells analyzed (Table 1). No such correlation was found for the Zinc-finger protein 638 (data not shown).

The target in experiment [3] is T3, NaPi2b 323-340 array peptide Ac-TSPSLCWTDGIQNWTMKN-amide (human).
T3 peptide: Ac-TSPSLCWTDGIQNWTMKN-NH2
The experiment in a line: synthetic peptide membrane array, 1 ug/ml antibody. The procedure:
(§1) For epitope mapping, membranes were incubated for 3 hours with 1 ug/ml primary antibody, followed by incubation with HRP-labeled goat anti-mouse polyclonal antibodies (Jackson ImmunoResearch Laboratories, West Grove, Pa.) for 2 hours. Bound antibody was visualized by chemiluminescence (Western Lightning Plus). For epitope mapping under reducing condition, membranes were incubated in 1 mM DTT for 1 hour at room temperature, and then washed extensively prior to antibody incubation.

The target of experiment [4] is T4, NaPi2b 312-340 array peptide with Ala at 328, Ac-INVTVPSTANCTSPSLAWTDGIQNWTMKN-amide (human, N-terminal acetyl (Ac-), C-terminal amide).
T4 peptide: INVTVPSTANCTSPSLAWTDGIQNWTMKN
The experiment can be described thus: synthetic peptide membrane array, 1 ug/ml antibody. The procedure: as §1

In experiment [5] the target is T5, NaPi2b 312-340 array peptide with Ala at 322 and 328, Ac-INVTVPSTANATSPSLAWTDGIQNWTMKN-amide (human, N-terminal acetyl (Ac-), C-terminal amide).
T5 peptide: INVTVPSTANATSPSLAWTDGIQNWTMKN
The experiment in a line: synthetic peptide membrane array, 1 ug/ml antibody. The procedure:
as §1

Experiment [6] concerns the target T6, NaPi2b 317-340 array peptide Ac-PSTANCTSPSLCWTDGIQNWTMKN-amide (human, N-terminal acetyl (Ac-), C-terminal amide).
T6 peptide: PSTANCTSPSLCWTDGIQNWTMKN
The experiment in a line: synthetic peptide membrane array, 1 ug/ml antibody. As for the experimental part:
as §1

Experiment [7] concerns the target T7, NaPi2b 324-338 array peptide Ac-SPSLCWTDGIQNWTM-amide (human).
T7 peptide: Ac-SPSLCWTDGIQNWTM-NH2
The experiment in a line: synthetic peptide membrane array, 1 ug/ml antibody. The procedure:
as §1

The target in experiment [8] is T8, NaPi2b 320-340 array peptide Ac-ANCTSPSLCWTDGIQNWTMKN-amide (human, N-terminal acetyl (Ac-), C-terminal amide).
T8 peptide: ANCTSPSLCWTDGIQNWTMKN
The experiment in a line: synthetic peptide membrane array, 1 ug/ml antibody. As for the experimental part:
as §1

In experiment [9] the target is T9, NaPi2b 312-340 array peptide with Ala at 322, Ac-INVTVPSTANATSPSLCWTDGIQNWTMKN-amide (human, N-terminal acetyl (Ac-), C-terminal amide).
T9 peptide: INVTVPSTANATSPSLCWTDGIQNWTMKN
The experiment can be described thus: synthetic peptide membrane array, 1 ug/ml antibody. The procedure:
as §1

The target in experiment [10] is T10, NaPi2b 312-340 array peptide Ac-INVTVPSTANCTSPSLCWTDGIQNWTMKN-amide (human, N-terminal acetyl (Ac-), C-terminal amide).
T10 peptide: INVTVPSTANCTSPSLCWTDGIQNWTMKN
The experiment in a line: synthetic peptide membrane array, 1 ug/ml antibody. The procedure: as §1

B1: Murine mAb MX35 (IgG1) (antibody, V domains shown)
VH: QVQLKQSGAELVKPGASVKMSCKASGYTFTGYNIHWVKQTPGQGLEWIGAIYPGNGDTSYKQKFRGKASLTADTSSSTVYMQLSSLTSEDSAVYYCARGETARATFAYWGQGTLVTVSA
VL: DIQMTQTTSSLPASLGDRVTISCSASQDIGNFLNWYQQKPDGTVKVLIYYTSSLYSGVPSRFSGSGSGTDYSLTISNLEPEDIATYYCQQYSKLPLTFGAGTKLELKR
notes: also called MX35 MAb; monoclonal antibody MX35
As for B1, the binding result is given as “no binding” in experiment [1]; “binds” in experiment [2]; “binds” in experiment [3]; “binds” in [4]; “binds” in [5]; “binds” in experiment [6]. Further, the binding result in experiment [7], in [8], in experiment [9] and in [10] was “binds” each time.
